Assay results taken from patent US20150110792A1 (Biogen, published 2015).

T1: human TIM-1-Fc (extracellular domain of human TIM-1, residues 1-290, attached to the Fc portion of human IgG1) (human, UniProt Q96D42 21-290)
T1 construct: also called TIM-1-Ig; human TIM1-Ig; not shown: Fc portion of human IgG1
T1 sequence: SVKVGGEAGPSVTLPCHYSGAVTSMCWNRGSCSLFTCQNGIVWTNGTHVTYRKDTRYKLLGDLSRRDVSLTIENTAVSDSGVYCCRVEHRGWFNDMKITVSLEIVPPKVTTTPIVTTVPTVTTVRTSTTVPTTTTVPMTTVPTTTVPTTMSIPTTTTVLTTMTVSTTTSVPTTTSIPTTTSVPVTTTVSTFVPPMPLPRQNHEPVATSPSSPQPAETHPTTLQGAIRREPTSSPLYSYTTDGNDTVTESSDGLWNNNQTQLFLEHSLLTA

T2: Cynomolgus monkey TIM-1 expressed on transfected 293E cells (Cynomolgus monkey (Macaca fascicularis), UniProt O46598 25-478 (Chlorocebus aethiops entry))
T2 construct: Full-length cDNA (pEAG2184) transfected into 293E cells; also called Cynomolgus TIM-1
T2 chain: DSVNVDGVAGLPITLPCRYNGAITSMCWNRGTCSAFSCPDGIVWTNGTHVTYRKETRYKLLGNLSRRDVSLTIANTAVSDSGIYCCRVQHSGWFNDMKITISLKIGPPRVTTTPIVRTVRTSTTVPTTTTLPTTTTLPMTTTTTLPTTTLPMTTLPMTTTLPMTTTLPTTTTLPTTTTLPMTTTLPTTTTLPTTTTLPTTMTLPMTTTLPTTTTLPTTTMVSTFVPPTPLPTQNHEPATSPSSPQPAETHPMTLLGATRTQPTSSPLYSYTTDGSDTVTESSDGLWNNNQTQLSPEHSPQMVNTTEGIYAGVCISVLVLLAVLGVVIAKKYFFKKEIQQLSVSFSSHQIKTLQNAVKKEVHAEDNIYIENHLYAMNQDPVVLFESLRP

T3: cynomolgus monkey TIM-1-Fc (cynomolgus monkey TIM-1 extracellular domain expressed as an Fc fusion protein) (Cynomolgus monkey (Macaca fascicularis))
T3 construct: also called cyno.TIM1; not shown: Fc part
T3 chain: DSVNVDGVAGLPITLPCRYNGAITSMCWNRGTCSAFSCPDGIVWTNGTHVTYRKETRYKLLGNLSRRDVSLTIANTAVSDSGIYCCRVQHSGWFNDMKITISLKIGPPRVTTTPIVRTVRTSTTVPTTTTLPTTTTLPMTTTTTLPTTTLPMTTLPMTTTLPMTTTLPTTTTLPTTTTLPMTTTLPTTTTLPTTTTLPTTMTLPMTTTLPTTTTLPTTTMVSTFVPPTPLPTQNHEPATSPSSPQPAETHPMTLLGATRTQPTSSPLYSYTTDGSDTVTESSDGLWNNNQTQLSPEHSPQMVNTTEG

T4: human TIM-1 expressed on cells (human, UniProt Q96D42 21-364)
T4 construct: Full-length human TIM-1 on transfected (HEK 293T, 293E, JUN2 Jurkat) or constitutively expressing (769-P) cells; also called HAVCR1; KIM-1
T4 sequence: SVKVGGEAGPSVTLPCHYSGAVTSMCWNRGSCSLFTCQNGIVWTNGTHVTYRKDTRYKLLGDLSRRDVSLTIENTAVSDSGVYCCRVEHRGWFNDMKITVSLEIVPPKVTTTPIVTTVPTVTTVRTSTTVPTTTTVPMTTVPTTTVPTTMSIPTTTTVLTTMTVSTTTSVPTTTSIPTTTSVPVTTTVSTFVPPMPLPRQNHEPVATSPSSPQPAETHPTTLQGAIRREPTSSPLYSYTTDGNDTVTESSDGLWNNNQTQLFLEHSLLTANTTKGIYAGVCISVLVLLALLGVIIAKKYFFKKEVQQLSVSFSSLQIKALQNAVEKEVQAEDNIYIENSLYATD


Columns and labels:
[1] = molecular target: T1, human TIM-1-Fc (extracellular domain of …); test: ELISA-1, plates coated with 2 µg/ml human TIM-1-Fc
Description: In the second assay, an ELISA format was used to measure the relative affinity of three anti-TIM-1 monoclonal antibodies for human TIM-1. Titration curves were derived for each antibody and EC50 values were calculated from the curves. […] Plates were thoroughly washed with PBS/0.1% Tween-20. Anti-human TIM-1 monoclonal antibodies were added across a range of concentrations starting at 10 μg/ml and using 1:3 dilutions, all in PBS/0.5% casein, and allowed to incubate for 1 hour at 22° C. The plates were washed again, and then a 1:1000 dilution of HRP-conjugated goat anti-mouse IgG (H+L; Jackson Immunoresearch Laboratories) was added in PBS/0.5% casein for an additional hour at 22° C. After a final wash, the plates were developed using substrate solution mix (R&D Systems) and stopped using 2N H2SO4. Plates were read at 450 nm using a microplate reader and analyzed using SoftMax Pro (Molecular Devices). Relative EC50 values were determined from the binding curves.
The cynomolgus monkey TIM-1 extracellular domain was expressed as an Fc fusion protein, purified, and used in the ELISA format described above for binding monoclonal antibodies to the human TIM-1 protein. […] The resulting titration curves were used to derive a relative EC50 for anti-human TIM-1 monoclonal antibody binding to human TIM-1 and cynomolgus monkey TIM-1 (Table 2, ELISA-2).

[2] = molecular target: T2, Cynomolgus monkey TIM-1 expressed on …; test: flow cytometry on 293E cells transfected with Cynomolgus monkey TIM-1 cDNA, gated on EGFP-positive cells, PE anti-mouse IgG
Description: In a second series of experiments, 293E cells transfected with human TIM-1 cDNA or Cynomolgus monkey TIM-1 cDNA were analyzed for anti-human TIM-1 monoclonal antibody binding by flow cytometry. The full-length human and cynomolgus monkey TIM1 cDNAs were engineered to remove extraneous 5′ and 3′ UTRs and to add an identical optimized Kozak sequence, then were subcloned into pNE001, a fully sequence-confirmed pUC-based EBV expression vector derived from the Invitrogen expression vector pCEP4, in which heterologous gene expression is controlled by a CMV-IE promoter and an SV40 polyadenylation signal, but lacking the EBNA gene and the hygromycin resistance gene. TIM-1 expression vectors (human: pEAG2182, and cynomolgus monkey: pEAG2184) were co-transfected into 293E cells at a 1:1 molar ratio with an EBV expression vector carrying an EGFP reporter (pEAG1458). Cells were transfected using Qiagen's Effectene reagent, following the manufacturer's recommended protocol. Cells were used in FACS at 2 days post-transfection, staining with a dilution titration series of murine anti-human TIM1 monoclonal antibodies, (detected with PE-conjugated goat anti-mouse IgG secondary antibody) and gating on green EGFP-positive living cells. […]

[3] = molecular target: T3, cynomolgus monkey TIM-1-Fc (cynomolgus …); test: ELISA-1, plates coated with 2 µg/ml cynomolgus monkey TIM-1-Fc
Description: (§1) In the second assay, an ELISA format was used to measure the relative affinity of three anti-TIM-1 monoclonal antibodies for human TIM-1. Titration curves were derived for each antibody and EC50 values were calculated from the curves. Briefly, ELISA plates (Corning Costar) were coated with 0.2 μg/ml human TIM-1-Fc overnight at 4° C. and then blocked for 1 hour at 22° C. with PBS/0.5% casein. Plates were thoroughly washed with PBS/0.1% Tween-20. Anti-human TIM-1 monoclonal antibodies were added across a range of concentrations starting at 10 μg/ml and using 1:3 dilutions, all in PBS/0.5% casein, and allowed to incubate for 1 hour at 22° C. The plates were washed again, and then a 1:1000 dilution of HRP-conjugated goat anti-mouse IgG (H+L; Jackson Immunoresearch Laboratories) was added in PBS/0.5% casein for an additional hour at 22° C. After a final wash, the plates were developed using substrate solution mix (R&D Systems) and stopped using 2N H2SO4. Plates were read at 450 nm using a microplate reader and analyzed using SoftMax Pro (Molecular Devices). Relative EC50 values were determined from the binding curves.
(§2) The cynomolgus monkey TIM-1 extracellular domain was expressed as an Fc fusion protein, purified, and used in the ELISA format described above for binding monoclonal antibodies to the human TIM-1 protein. […]

[4] = molecular target: T3, cynomolgus monkey TIM-1-Fc (cynomolgus …); test: ELISA-2, plates coated with 0.2 µg/ml cynomolgus monkey TIM-1-Fc
Description: as §1, §2

[5] = molecular target: T4, human TIM-1 expressed on cells; test: flow cytometry on JUN2 cells (Jurkat stably expressing human TIM-1), PE anti-mouse IgG, MFI against µg/ml of mAb
Description: (§3) Three assays were used to assess the affinity of ARD5 for human TIM-1. In the first assay, ARD5 binding to cells expressing TIM-1 was measured by Flow Cytometry. Two cell lines were used. JUN2 cells are a stable human Jurkat TIM-1-expressing cell line (described in Binne et al. (2007) J. Immunol. 178: 4342-50). The human kidney cell line 769-P also constitutively expresses TIM-1. JUN2 cells and 769-P cells were cultured in RPMI/10% FBS. JUN2 cells grow in suspension; 769-P cells are adherent and were gently removed with Accutase (Invitrogen). Cells were resuspended in PBS/5% BSA and incubated with monoclonal antibodies for 1 hour on ice. Following several washes with PBS/5% BSA, the cells were resuspended in the same buffer containing PE-coupled donkey anti-mouse IgG secondary antibody (Jackson Immunoresearch). Following an additional wash in PBS/5% BSA and a final wash in PBS, cell were resuspended in 100 ul PBS and fixed in an equal volume of 2% paraformaldehyde. Monoclonal antibody binding was analyzed using a flow cytometer (FACScan).

[6] = molecular target: T1, human TIM-1-Fc (extracellular domain of …); test: SPR (Biacore), human TIM-1-Fc
[7] = molecular target: T1, human TIM-1-Fc (extracellular domain of …); test: ELISA-2, plates coated with 0.2 µg/ml human TIM-1-Fc
Description: as §1, §2

[8] = molecular target: T4, human TIM-1 expressed on cells; test: flow cytometry on 769-P cells (constitutively expressing human TIM-1), PE anti-mouse IgG, MFI against µg/ml of mAb
Description: as §3

[9] = molecular target: T1, human TIM-1-Fc (extracellular domain of …); test: ELISA, plates coated with human TIM-1-Fc
Description: as §1

[10] = molecular target: T3, cynomolgus monkey TIM-1-Fc (cynomolgus …); test: SPR (Biacore), cynomolgus monkey TIM-1-Fc
[11] = molecular target: T1, human TIM-1-Fc (extracellular domain of …); test: SPR (Biacore), monovalent binding to immobilized human TIM-1

| Binder | EC50 [1] [µg/mL] | binding result [2] | EC50 [3] [µg/mL] | EC50 [4] [µg/mL] | EC50 (read off the curve) [5] [µg/mL] | Kd [6] [nM] | EC50 [7] [µg/mL] | EC50 (read off the curve) [8] [µg/mL] | EC50 [9] [µg/mL] | relative EC50 against A6G2 and A3H1 (percent greater) [9] [%] | Kd [10] [nM] | Kd [11] [nM] |
| --- | --- | --- | --- | --- | --- | --- | --- | --- | --- | --- | --- | --- |
| monoclonal antibody ARD5 (antibody, mouse IgG1, kappa, V domains shown, Murine IgG1/kappa hybridoma antibody (ATCC PTA-12195); also called ARD5.12; muARD5) VH: QVQLQQSGAELVRPGTSVKVSCKASGYVFTNYWIEWIKQRPGQGLEWIGVMNPGSGETTYNEKFKGKATLTADKSSSTAYMQLSSLTSVDSAVYFCARDHDRDYYAMDYWGQGTSVTVSS VL: EIQMTQSPSSMSASLGDTITITCQATQDIFKNLNWYQQKPGKPPSLLIYYATELAEGVPSRFSGSGSGSDYSLTISNLESEDFAAYYCLQFFEFPFTFGSGTKLEMKR | 0.001 | binds | 0.002 | 0.013 | ~0.1 | ≤ 0.6 | 0.043 | ~0.2 | 0.00078 | 80.5 | < 50 |  |
| FAb fragment of ARD5 (Fab, V domains shown, Fab purified from the ARD5 monoclonal antibody; also called FAb of ARD5; not shown: murine IgG1 CH1 and part of the hinge) VH: QVQLQQSGAELVRPGTSVKVSCKASGYVFTNYWIEWIKQRPGQGLEWIGVMNPGSGETTYNEKFKGKATLTADKSSSTAYMQLSSLTSVDSAVYFCARDHDRDYYAMDYWGQGTSVTVSS VL: EIQMTQSPSSMSASLGDTITITCQATQDIFKNLNWYQQKPGKPPSLLIYYATELAEGVPSRFSGSGSGSDYSLTISNLESEDFAAYYCLQFFEFPFTFGSGTKLEMKR |  |  |  |  |  |  |  |  |  |  |  | 3 |
